Source: patent publication US20220324998A1 (MUSC FOUNDATION FOR RESEARCH DEVELOPMENT, published 2022)

Key:
[1] = biological target: T1, HRAS(Q61L) (UniProt P01112 1-189, limits assumed); test: co-IP (FLAG IP, Western blot) from HEK cells (FIG. 6)
T1 construct: HA-tagged, expressed in HEK cells; also called Q61L mutant; HA-tagged HRAS Q61L
Text: (§1) R15m clones were expressed as CFP-FLAG fusion proteins in HEK cells along with various HA-tagged mutants of HRAS. CFP and NS1 Monobody were used as controls. CFP-FLAG and CFP-FLAG-tagged Monobodies (Mb) were immunoprecipitated, fractionated on SDSPAGE, and probed for binding to HRAS mutants. Antibodies used in Western blots are shown to the right of each panel.
(§2) R15 or R18 Monobody was expressed as CFP-FLAG fusion proteins in HEK cells along with various HA-tagged mutants of HRAS or KRAS, immunoprecipitated, and probed for binding to RAS mutants (FIGS. 1B and 1C). Additionally, various R15-derivative (R15m #) Monobody clones were expressed as CFP-FLAG fusion proteins in HEK cells along with various HA-tagged mutants of HRAS, immunoprecipitated, and probed for binding to RAS mutants (FIG. 5). R15 and R18 clones bound predominantly to Q61L, D119N, and K16N mutants with little binding to wild type (WT) or G12V mutant. K16N purifies from bacteria in a nucleotide free state. […] R15m10 binds Q61L mutants of all three RAS isoforms in addition to binding to NRAS(G12D) mutant (FIG. 6). Further R15m10 binds common oncogenic RAS mutants (FIG. 7 and FIG. 8).

[2] = biological target: T2, NRAS(Q61L) (UniProt P01111 1-189, limits assumed); test: as above
T2 construct: HA-tagged, expressed in HEK cells
Text: as §1, §2

[3] = biological target: NRAS(G12D) (UniProt P01111 1-189, limits assumed); test: as above
Text: as §1, §2

[4] = biological target: T3, HRAS(G12V) (UniProt P01112 1-189); test: FLAG IP of monobody from HEK cells co-transfected with HA-tagged RAS mutant (FIG. 11D)
T3 construct: also called G12V mutant
Text: FIG. 11A depicts KRAS(Q61L) co-expression with NS1 and R15. FIG. 11B depicts KRAS(G12D) co-expression with NS1 and R15. FIG. 11C depicts KRAS(G13D) co-expression with NS1 and R15. FIG. 11D depicts HRAS(G12V) co-expression with NS1 and R15. FIGS. 11E and 11F depict total expression of proteins with NS1 and R15, respectively, in whole cell lysates (WCL). HEK cells were co-transfected with the indicated Mb and HA-tagged RAS mutant. Monobodies were subsequently immunoprecipitated with FLAG antibodies to purify the associated RAS mutant protein. IPs were washed extensively with buffer containing high Mg2+ and lacking nucleotide. RAS proteins were then eluted from the immune complex with buffer containing low concentrations of SDS and deoxycholate (DOC). Eluted RAS proteins were then recovered and diluted 10-fold with buffer lacking SDS and DOC. Purified RAS proteins were then normalized to equivalent levels and incubated with GST-RAF-RBD to determine the level of active GTP-loaded RAS. As indicated, NS1 purified RAS-GTP as the purified RAS proteins robustly bound GST-RAF RBD both in the absence and presence of added GTPγS. […] However, addition of GTPγS (+GTP) to the R15m10 purified RAS proteins reconstituted binding to the RAF-RBD.
HEK cells were co-transfected with the indicated Mb and HA-tagged RAS mutant. […]

Measured: binding result

B1: FLAG-tagged CFP-R15m10 Monobody (designed binder)
chain: VSSVPTKLEVVAATPTSLLISWDASSSSVSYYRITYGETGGNSPVQEFTVPGYYSTATISGLKPGVDYTITVYAVWQGVWRYVSPISINYRT
notes: also called apo-specific monobody R15m10; not shown: CFP; FLAG tag
binds: all assays above
